Laboratory results as given in US20250277030A1, “ANTI-NAPI2B ANTIBODIES AND METHODS OF USE” (Zymeworks BC Inc., priority 2022, published 2025).

Target: Insulin (Sigma-Aldrich, 19278) (UniProt P01308)
Assay: non-specific binding ELISA, insulin coated at 5 µg/mL, antibody at 100 nM

Sequence of Insulin (Sigma-Aldrich, 19278) (P01308 25-54 limits assumed, chain 1 of 2): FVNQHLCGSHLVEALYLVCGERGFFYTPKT
Sequence of Insulin (Sigma-Aldrich, 19278) (P01308 90-110 limits assumed, chain 2 of 2): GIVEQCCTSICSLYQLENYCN

NS-ELISA binding score (ratio of signal between antibody-treated and untreated): 1.03
B1: v29452 humanized anti-NaPi2b antibody (H1L3) (antibody, human IgG1, kappa, V domains shown)
VH: QVQLVQSGAEVKKPGASVKVSCKASGFTFTSYNVHWVRQAPGQGLEWMGAISPGNGDLSYAQKFQGRVTMTRDTSTSTVYMELSSLRSEDTAVYYCARGRTGMGAVDYWGQGTLVTVSS
VL: DVQMTQSPSSLSASVGDRVTITCRASQDVYSYLNWYQQKPGKAVKLLIYYTSRLQSGVPSRFSGSGSGTDYTLTISSLQPEDIATYYCQQYNIFPWTFGQGTKLEIKR
